Here are results for 1 substance from patent US20250281608A1.

This assay addresses C1q. The assay is described as follows: C1q binding assay, format not stated.

Consider rituximab (antibody), for which the concentration giving a half-maximal response (EC50) came out at 0.9 µg/mL.

One may read the EC50 as the concentration at which the effect is half-maximal.
